Results published in patent US20200002383A1.

Tests used:
[1] = molecular target: CH505 transmitted/founder (TF) gp120 Env (HIV-1); experiment: SPR
[2] = molecular target: CH505 M11 gp120 (HIV-1); experiment: ELISA
[3] = molecular target: CH505 transmitted/founder (TF) gp120 Env (HIV-1); experiment: ELISA
[4] = molecular target: CH505 w020.14 gp120 (HIV-1); experiment: ELISA
[5] = molecular target: CH505 TF CHIM.6R.SOSIP.664V4.1 trimer (HIV-1); experiment: kinetic binding assay of FIG. 69
[6] = molecular target: CH505 transmitted/founder (TF) gp120 Env (HIV-1); experiment: SPR, antibody captured, gp120 injected
[7] = molecular target: CH505 M5 gp120 (HIV-1); experiment: ELISA
[8] = molecular target: CH505 w030.21 gp120 (HIV-1); experiment: ELISA
[9] = molecular target: CH505 w030.28 gp120 (HIV-1); experiment: ELISA
[10] = molecular target: CH505 w053.16 gp120 (HIV-1); experiment: ELISA
[11] = molecular target: CH505 w053.31 gp120 (HIV-1); experiment: ELISA
[12] = molecular target: CH505 w078.15 gp120 (HIV-1); experiment: ELISA
[13] = molecular target: CH505 w078.33 gp120 (HIV-1); experiment: ELISA
[14] = molecular target: CH505 w100.B6 gp120 (HIV-1); experiment: ELISA
[15] = molecular target: BG505 SOSIP.664 gp140 trimer (HIV-1); experiment: negative-stain EM
[16] = molecular target: CH505 TF loop D mutant M8 Env on virus (HIV-1)
[17] = molecular target: CH505 TF loop D mutant M20 Env on virus (HIV-1)
[18] = molecular target: CH505 TF loop D mutant M7 Env on virus (HIV-1)
[19] = molecular target: CH505 TF loop D mutant M9 Env on virus (HIV-1)

In the case of CH103 UCA (antibody), the Kd [1] is reported as 200 nM, the log AUC [2] is reported as 2.6 log AUC and the log AUC [3] is reported as 3.5 log AUC. It also gave a log AUC [4] of 0.3 log AUC, a fold change of the off-rate against CH505 TF gp120 [5] of 10 fold and a Kd [6] of 227 nM. It also gave a kon [6] of 37000 M⁻¹ s⁻¹.

For CH103 lineage IA1 (antibody), the log AUC [2] was 12.2 log AUC, the log AUC [7] was 7 log AUC and the log AUC [3] was 10.4 log AUC. For the same substance, the log AUC [4] was 10.3 log AUC, the log AUC [8] was 11.8 log AUC and the log AUC [9] was 10.1 log AUC. It also gave a log AUC [10] of 8.8 log AUC, a log AUC [11] of 13.4 log AUC and a log AUC [12] of 10.9 log AUC. For the same substance, the log AUC [13] was 8.2 log AUC and the log AUC [14] was 12.2 log AUC.

In the case of CH103 lineage IA2 (antibody), the log AUC [2] is reported as 12.7 log AUC, the log AUC [7] is reported as 7.8 log AUC and the log AUC [3] is reported as 10.8 log AUC. It also gave a log AUC [4] of 11 log AUC, a log AUC [8] of 11.5 log AUC and a log AUC [9] of 11.1 log AUC. It also gave a log AUC [10] of 9.3 log AUC, a log AUC [11] of 13.3 log AUC and a log AUC [12] of 11.5 log AUC. The log AUC [13] was 9 log AUC and the log AUC [14] was 12.1 log AUC.

Work on CH103 lineage IA3 (antibody) yielded a log AUC [2] of 11.8 log AUC, a log AUC [7] of 6.8 log AUC and a log AUC [3] of 11 log AUC. For the same substance, the log AUC [4] was 9.5 log AUC, the log AUC [9] was 7.7 log AUC and the log AUC [10] was 1.1 log AUC. The log AUC [12] was 3 log AUC.

“CH103 lineage IA4 (from UniProt P27701) (antibody)” gave a log AUC [2] of 10.5 log AUC, a log AUC [7] of 3.8 log AUC and a log AUC [3] of 10.1 log AUC. For the same substance, the log AUC [4] was 8.6 log AUC, the log AUC [9] was 6.5 log AUC and the log AUC [10] was 0.2 log AUC. It also gave a log AUC [12] of 1.3 log AUC.

For CH103 lineage IA6 (antibody), the log AUC [2] was 10 log AUC, the log AUC [7] was 3.3 log AUC and the log AUC [3] was 9.1 log AUC. For the same substance, the log AUC [4] was 7.9 log AUC, the log AUC [9] was 6.3 log AUC and the log AUC [12] was 1 log AUC.

In the case of CH103 lineage IA7 (antibody), the log AUC [2] is reported as 10.1 log AUC, the log AUC [7] is reported as 2.3 log AUC and the log AUC [3] is reported as 9.2 log AUC. For the same substance, the log AUC [4] was 7.2 log AUC, the log AUC [9] was 3.5 log AUC and the log AUC [12] was 0.7 log AUC.

Work on CH103 lineage IA8 (antibody) yielded a log AUC [2] of 6.2 log AUC, a log AUC [7] of 0.6 log AUC and a log AUC [3] of 5.5 log AUC. It also gave a log AUC [4] of 3.4 log AUC and a log AUC [9] of 1.6 log AUC.

For CH235 Fab, the stoichiometry (Fabs per trimer) (Fab per trimer) [15] was 1.

With CH235 UCA (antibody) the log AUC [7] was 0.2 log AUC.

Substance CH235 lineage I1 (antibody) has a log AUC [2] of 2.8 log AUC, a log AUC [7] of 9.2 log AUC and a log AUC [4] of 6.5 log AUC. It also gave a log AUC [9] of 2.4 log AUC.

CH235 lineage I2 (antibody) was tested, and the log AUC [7] was 6.9 log AUC and the log AUC [4] was 1.2 log AUC.

Work on CH235 lineage I3 (antibody) yielded a log AUC [7] of 7 log AUC and a log AUC [4] of 2.7 log AUC.

With CH235 lineage IA4 (antibody) the log AUC [7] was 1.4 log AUC.

CH235.9 (antibody) was tested, and the IC50 [16] was 0.66 µg/mL.

In the case of CH235.9 N30T (antibody), the IC50 [17] is reported as greater than 44 µg/mL, the IC50 [18] is reported as greater than 44 µg/mL and the IC50 [16] is reported as 24.3 µg/mL. For the same substance, the IC50 [19] was greater than 44 µg/mL.
